The chains are these.
B1: Hairpin Ribozyme (parent)
chain: GUCCUCUUUCACGUGCGCGUGAAAGAGAGAAGUGAACCAGAGAAACACACGUUGUGGUAUAUUACCUGGUA

In the data set the parent is B1. In words: self-cleavage, relative activity (ratio to wild type); higher = more cleavage; co-transcriptional.
Regarding U9C G32C, the self-cleavage worked out at 0.0478.
Take G29U C66A: the self-cleavage was 0.205.
In the case of A41G U53C, the self-cleavage came to 0.819.
In the case of G57U A71U, the self-cleavage amounted to 0.223.
As for C18G A31C, the self-cleavage came to 0.0659.
In the case of C12U C65G, the self-cleavage was found to be 0.2.
Regarding G34A U60A, the self-cleavage was found to be 1.13.
With U14G C50A, the self-cleavage was 0.307.
Regarding A23U C48G, the self-cleavage came to 0.226.
On to A36C U70G, for which the self-cleavage was determined as 0.671.
With G29U G57A, the self-cleavage is 0.172.
Regarding G19C G54U, the self-cleavage stood at 0.626.
Then G21C U60G, with 0.55; and A31G U58G, with 0.404; and A31G G34U, with 1.54.
Regarding U5G G21U, the self-cleavage stood at 0.324.
Then G34A G51U, with 1.28; and A41G U60C, with 1.23.
As for U8A G13A, the self-cleavage is 0.637.
C4U C48A: the self-cleavage stood at 0.114.
To A22G A41G belongs 0.811; to G42C U70C, 0.233; to U62A G69A, 0.176.
G34U U55G: the self-cleavage was 1.27.
Turning to G15A A31C, the self-cleavage is 0.151.
As to U53G A61G, the self-cleavage came out at 0.313.
Regarding G51U U52A, the self-cleavage turned out to be 1.1.
Regarding U2C A22U, the self-cleavage was determined as 0.296.
As for G56U U63G, the self-cleavage is 0.0375.
To U20G U70A belongs 1.07; to U5G A24C, 0.273.
For A26U G68U, the self-cleavage was found to be 0.207.
Then G19U A26U, with 0.682; and C18G C48A, with 0.146.
As for C6A A28C, the self-cleavage turned out to be 0.233.
In the case of A30U C46U, the self-cleavage was 0.0965.
As for A41C U52A, the self-cleavage was determined as 1.17.
As to G15A U20C, the self-cleavage is 0.864.
Then G13C G29A, with 0.106; and U58C U70G, with 0.759; and G15U, with 1.08.
On to A47U C50G, for which the self-cleavage was determined as 0.28.
For G1C C37A, the self-cleavage was 0.0534.
On to G19C U60G, for which the self-cleavage was found to be 0.541.
Then A28G A31C, with 0.113; and G34C G54C, with 0.735; and C37A A47G, with 0.0917.
To U33C G34U belongs 0.348.
To C10A A41G belongs 0.694.
With U20C G42A, the self-cleavage amounted to 0.19.
To U8C G42A belongs 0.177; to A35U U67C, 0.176.
As for G32A U33G, the self-cleavage was found to be 0.137.
To G40A A44U belongs 0.178; to G42A C48U, 0.0486.
To G25A G69U belongs 0.0604.
For C37U U60G, the self-cleavage came to 0.451.
Then G13C A39C, with 0.59.
In the case of G1C G34A, the self-cleavage was found to be 0.162.
Then G29U A44C, with 0.251; and A22U C38A, with 0.155; and G42A A61G, with 0.201.
For A22U A59G, the self-cleavage amounted to 0.117.
In the case of U14G C16G, the self-cleavage amounted to 0.548.
Regarding C4A C38U, the self-cleavage was 0.135.
Consider U20A U52G, for which the self-cleavage stood at 0.685.
Then C3U G25A, with 0.205.
To U62C A71C belongs 0.595; to C37U A45C, 0.109; to C16A G42C, 0.304.
As for A39G C65U, the self-cleavage was determined as 0.263.
As for C18A A43U, the self-cleavage was 0.196.
In the case of U14G U70A, the self-cleavage came to 0.823.
In the case of G25U A59C, the self-cleavage stood at 0.195.
U33G C38G: the self-cleavage stood at 0.128.
As to G1C U14G, the self-cleavage came to 0.101.
As to U9G G27A, the self-cleavage is 0.332.
As for U14A U67C, the self-cleavage was found to be 0.247.
For the variant C4G U63G, the self-cleavage was found to be 0.217.
A59G U63G: the self-cleavage came to 0.0571.
To C12A U52C belongs 0.768.
For G1C A61U, the self-cleavage was determined as 0.126.
For the variant U8G G40A, the self-cleavage stood at 0.264.
Regarding U8C G34A, the self-cleavage was 1.18.
Consider A31C U70C, for which the self-cleavage is 0.0987.
To U8C U67C belongs 0.159; to G42C G68A, 0.119.
For G42C C48A, the self-cleavage was determined as 0.134.
Turning to U2A A31U, the self-cleavage worked out at 0.163.
Regarding G32U A49G, the self-cleavage is 0.128.
Turning to U20C U55A, the self-cleavage turned out to be 0.407.
Take U7A G15C: the self-cleavage stood at 1.06.
A35G A41G: the self-cleavage amounted to 0.814.
Then C37G C66G, with 0.154.
Then C16A A59U, with 0.212; and G27C A47C, with 0.0432; and C10A G13A, with 0.501.
Consider U7G A23C, for which the self-cleavage amounted to 0.624.
For G34C A59G, the self-cleavage was 0.174.
As for U2C A26G, the self-cleavage is 0.121.
Regarding A31C C66G, the self-cleavage amounted to 0.102.
To C16U U20C belongs 0.86; to U9A U53A, 0.768.
Then C12U A59G, with 0.116.
For G54U, the self-cleavage came to 0.626.
Consider U60A U67C, for which the self-cleavage was 0.155.
Regarding U60A U67G, the self-cleavage turned out to be 0.187.
Consider C16A U52C, for which the self-cleavage is 0.841.
On to G40A A43U, for which the self-cleavage is 0.0963.
Consider A44G G54A, for which the self-cleavage is 0.151.
Consider A11U C66A, for which the self-cleavage stood at 0.139.
Regarding C3A A22U, the self-cleavage is 0.702.
On to U55A A59C, for which the self-cleavage is 0.252.
For U5C G32U, the self-cleavage came out at 0.132.
Consider U5A C18U, for which the self-cleavage worked out at 0.554.
With C4G C12U, the self-cleavage amounted to 0.187.
As to C4U G13U, the self-cleavage is 0.314.
As for G1A U62A, the self-cleavage worked out at 0.192.
For the variant G17U A24C, the self-cleavage is 0.848.
For the variant A28U C66A, the self-cleavage was found to be 0.194.
Then C46U U52A, with 0.179.
With A49C G69U, the self-cleavage amounted to 0.136.
Consider A59G U62C, for which the self-cleavage came out at 0.201.
With C65U U67C, the self-cleavage stood at 0.209.
With A41U G57A, the self-cleavage stood at 0.145.
C18G A47C: the self-cleavage was determined as 0.242.
To G19U C48G belongs 0.2; to A43C U58G, 0.262; to A31U U70C, 0.0555.
Consider C4G C38G, for which the self-cleavage is 0.104.
As for U70G, the self-cleavage amounted to 0.844.
Then C12U A28U, with 0.583; and G1U U67G, with 0.097; and A31U C48U, with 0.109.
Then A44G A71C, with 0.143; and C4G A35C, with 0.16.
For G15U G21A, the self-cleavage came to 0.872.
To G32C U55A belongs 0.176.
To G17C C38A belongs 0.199; to C12G G13C, 0.944.
Turning to U20G C48G, the self-cleavage was 0.179.
Then G13U U33C, with 0.102.
Take G15A A64C: the self-cleavage came out at 0.171.
As to A26C A61G, the self-cleavage was determined as 0.0543.
On to A26C A61U, for which the self-cleavage is 0.184.
Turning to C12U C50A, the self-cleavage came to 0.314.
Then A39U U63C, with 0.144.
Take G19A A36U: the self-cleavage worked out at 0.542.
Turning to C46G A71C, the self-cleavage stood at 0.211.
A23C A44G: the self-cleavage is 0.056.
For the variant A11G A28G, the self-cleavage is 1.11.
As for A26G C50A, the self-cleavage was 0.262.
For C16G U58G, the self-cleavage was 0.749.
As for G34A, the self-cleavage was 1.21.
Then U33C C46U, with 0.0782; and A49U U52G, with 0.364.
In the case of A35U A43G, the self-cleavage stood at 0.0794.
Consider G1A U5A, for which the self-cleavage was 0.152.
Then G1U A31U, with 0.0996.
To C4A G25A belongs 0.169; to G1C U58A, 0.131.
U14A G56C: the self-cleavage came out at 0.168.
On to G19U G29A, for which the self-cleavage was determined as 0.111.
As for G19A A26G, the self-cleavage amounted to 0.932.
Then A22U C50A, with 0.211.
Then U9C A61C, with 0.183; and U9G G32A, with 0.128.

(Values after the RNAGym collection of RNA variant scans (doi:10.7554/elife.80360).)
